Data reported in article PMC2568912 (The Journal of Biological Chemistry, 2008).

Molecular target: the molecule itself
Test: non-reducing SDS-PAGE with immunoblot

B1: N-terminal HA-tagged PKD2 mutant L703X (domain or fragment, human, UniProt Q13563 1-702, looked up)
chain: MVNSSRVQPQQPGDAKRPPAPRAPDPGRLMAGCAAVGASLAAPGGLCEQRGLEIEMQRIRQAAARDPPAGAAASPSPPLSSCSRQAWSRDNPGFEAEEEEEEVEGEEGGMVVEMDVEWRPGSRRSAASSAVSSVGARSRGLGGYHGAGHPSGRRRRREDQGPPCPSPVGGGDPLHRHLPLEGQPPRVAWAERLVRGLRGLWGTRLMEESSTNREKYLKSVLRELVTYLLFLIVLCILTYGMMSSNVYYYTRMMSQLFLDTPVSKTEKTNFKTLSSMEDFWKFTEGSLLDGLYWKMQPSNQTEADNRSFIFYENLLLGVPRIRQLRVRNGSCSIPQDLRDEIKECYDVYSVSSEDRAPFGPRNGTAWIYTSEKDLNGSSHWGIIATYSGAGYYLDLSRTREETAAQVASLKKNVWLDRGTRATFIDFSVYNANINLFCVVRLLVEFPATGGVIPSWQFQPLKLIRYVTTFDFFLAACEIIFCFFIFYYVVEEILEIRIHKLHYFRSFWNCLDVVIVVLSVVAIGINIYRTSNVEVLLQFLEDQNTFPNFEHLAYWQIQFNNIAAVTVFFVWIKLFKFINFNRTMSQLSTTMSRCAKDLFGFAIMFFIIFLAYAQLAYLVFGTQVDDFSTFQECIFTQFRIILGDINFAEIEEANRVLGPIYFTTFVFFMFFILLNMFLAIINDTYSEVKSDLAQQKAEMELSD
  stoichiometry N: 2
